From patent US20170266254A1 (AILERON THERAPEUTICS, published 2017)
Bridges are numbered along the chain shown (N, C = ends). [ ]: non-standard residue; d: D form. R8 = C=CCCCCCC[C@@](C)(N)C(=O)O; S5 = C=CCCC[C@](C)(N)C(=O)O

T1: C-terminally 6x Histidine-tagged Beta-Catenin (aa 134-668, 59 KD) (UniProt P35222 134-668)
T1 construct: range 134-668; Armadillo repeat region
T1 sequence: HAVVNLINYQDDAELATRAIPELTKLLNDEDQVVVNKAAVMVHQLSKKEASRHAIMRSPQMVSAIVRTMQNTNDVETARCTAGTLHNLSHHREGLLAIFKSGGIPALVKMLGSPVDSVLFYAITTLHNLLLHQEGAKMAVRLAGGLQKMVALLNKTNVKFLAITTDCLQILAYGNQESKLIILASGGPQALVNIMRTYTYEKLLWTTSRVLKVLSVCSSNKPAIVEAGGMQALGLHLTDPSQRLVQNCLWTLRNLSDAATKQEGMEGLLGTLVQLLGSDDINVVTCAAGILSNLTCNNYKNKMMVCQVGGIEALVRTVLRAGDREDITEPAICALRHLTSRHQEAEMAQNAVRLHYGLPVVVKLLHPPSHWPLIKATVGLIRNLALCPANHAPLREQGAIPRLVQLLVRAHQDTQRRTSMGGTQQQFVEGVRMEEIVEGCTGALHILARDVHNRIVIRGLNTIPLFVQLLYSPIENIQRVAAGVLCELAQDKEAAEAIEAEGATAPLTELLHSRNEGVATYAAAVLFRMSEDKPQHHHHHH


Target: T1, C-terminally 6x Histidine-tagged …
Assay: competitive fluorescence polarization, FAM-labelled linear probe as competitor, His-tagged beta-catenin 134-668
Summary of the method: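 FP competition in 25 mM Tris-HCl pH 7.5, 200 mM NaCl, 5 mM CHAPS, 2 mM DTT at room temperature. Competitor peptides at 40–0.7 μM 2× working range, constant DMSO. Probe (benchmark peptide with N-terminal FAM via β-Ala spacer) from 25 nM 10× stock. Read after 3 h in the dark, ex 485/em 528 nm.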

Binder | IC50
Ac-LGANDELISF[S5]DEG[S5]QEEKSSN-NH2 (staple 11-15; SMILES CC[C@H](C)[C@H](NC(=O)[C@H](CC(C)C)NC(=O)[C@H](CCC(=O)O)NC(=O)[C@H](CC(=O)O)NC(=O)[C@H](CC(N)=O)NC(=O)[C@H](C)NC(=O)CNC(=O)[C@H](CC(C)C)NC(C)=O)C(=O)N[C@@H](CO)C(=O)N[C@@H](Cc1ccccc1)C(=O)N[C@@]1(C)CCCC=CCCC[C@@](C)(C(=O)N[C@@H](CCC(N)=O)C(=O)N[C@@H](CCC(=O)O)C(=O)N[C@@H](CCC(=O)O)C(=O)N[C@@H](CCCCN)C(=O)N[C@@H](CO)C(=O)N[C@@H](CO)C(=O)N[C@@H](CC(N)=O)C(N)=O)NC(=O)CNC(=O)[C@H](CCC(=O)O)NC(=O)[C@H](CC(=O)O)NC1=O) [SP16] | ≥ 100 µM
Ac-LGANDELISFKDEG[S5]QEE[S5]SSN-NH2 (staple 15-19; SMILES CC[C@H](C)[C@H](NC(=O)[C@H](CC(C)C)NC(=O)[C@H](CCC(=O)O)NC(=O)[C@H](CC(=O)O)NC(=O)[C@H](CC(N)=O)NC(=O)[C@H](C)NC(=O)CNC(=O)[C@H](CC(C)C)NC(C)=O)C(=O)N[C@@H](CO)C(=O)N[C@@H](Cc1ccccc1)C(=O)N[C@@H](CCCCN)C(=O)N[C@@H](CC(=O)O)C(=O)N[C@@H](CCC(=O)O)C(=O)NCC(=O)N[C@@]1(C)CCCC=CCCC[C@@](C)(C(=O)N[C@@H](CO)C(=O)N[C@@H](CO)C(=O)N[C@@H](CC(N)=O)C(N)=O)NC(=O)[C@H](CCC(=O)O)NC(=O)[C@H](CCC(=O)O)NC(=O)[C@H](CCC(N)=O)NC1=O) [SP18] | 60.1 µM
Ac-LGANDELISFKDEGE[S5]EEK[S5]SN-NH2 (staple 16-20; SMILES CC[C@H](C)[C@H](NC(=O)[C@H](CC(C)C)NC(=O)[C@H](CCC(=O)O)NC(=O)[C@H](CC(=O)O)NC(=O)[C@H](CC(N)=O)NC(=O)[C@H](C)NC(=O)CNC(=O)[C@H](CC(C)C)NC(C)=O)C(=O)N[C@@H](CO)C(=O)N[C@@H](Cc1ccccc1)C(=O)N[C@@H](CCCCN)C(=O)N[C@@H](CC(=O)O)C(=O)N[C@@H](CCC(=O)O)C(=O)NCC(=O)N[C@@H](CCC(=O)O)C(=O)N[C@@]1(C)CCCC=CCCC[C@@](C)(C(=O)N[C@@H](CO)C(=O)N[C@@H](CC(N)=O)C(N)=O)NC(=O)[C@H](CCCCN)NC(=O)[C@H](CCC(=O)O)NC(=O)[C@H](CCC(=O)O)NC1=O) [SP19] | ≥ 100 µM
Ac-LGANDELISFK[S5]EGE[S5]EEKSSN-NH2 (staple 12-16; SMILES CC[C@H](C)[C@H](NC(=O)[C@H](CC(C)C)NC(=O)[C@H](CCC(=O)O)NC(=O)[C@H](CC(=O)O)NC(=O)[C@H](CC(N)=O)NC(=O)[C@H](C)NC(=O)CNC(=O)[C@H](CC(C)C)NC(C)=O)C(=O)N[C@@H](CO)C(=O)N[C@@H](Cc1ccccc1)C(=O)N[C@@H](CCCCN)C(=O)N[C@@]1(C)CCCC=CCCC[C@@](C)(C(=O)N[C@@H](CCC(=O)O)C(=O)N[C@@H](CCC(=O)O)C(=O)N[C@@H](CCCCN)C(=O)N[C@@H](CO)C(=O)N[C@@H](CO)C(=O)N[C@@H](CC(N)=O)C(N)=O)NC(=O)[C@H](CCC(=O)O)NC(=O)CNC(=O)[C@H](CCC(=O)O)NC1=O) [SP17] | 52.9 µM
Ac-LGANDELISFK[R8]EGEQEE[S5]SSN-NH2 (staple 12-19; SMILES CC[C@H](C)[C@H](NC(=O)[C@H](CC(C)C)NC(=O)[C@H](CCC(=O)O)NC(=O)[C@H](CC(=O)O)NC(=O)[C@H](CC(N)=O)NC(=O)[C@H](C)NC(=O)CNC(=O)[C@H](CC(C)C)NC(C)=O)C(=O)N[C@@H](CO)C(=O)N[C@@H](Cc1ccccc1)C(=O)N[C@@H](CCCCN)C(=O)N[C@]1(C)CCCCCCC=CCCC[C@@](C)(C(=O)N[C@@H](CO)C(=O)N[C@@H](CO)C(=O)N[C@@H](CC(N)=O)C(N)=O)NC(=O)[C@H](CCC(=O)O)NC(=O)[C@H](CCC(=O)O)NC(=O)[C@H](CCC(N)=O)NC(=O)[C@H](CCC(=O)O)NC(=O)CNC(=O)[C@H](CCC(=O)O)NC1=O) [SP21] | 23.9 µM
Ac-LGANDELISF[S5]DQG[S5]QEEKSSN-NH2 (staple 11-15; SMILES CC[C@H](C)[C@H](NC(=O)[C@H](CC(C)C)NC(=O)[C@H](CCC(=O)O)NC(=O)[C@H](CC(=O)O)NC(=O)[C@H](CC(N)=O)NC(=O)[C@H](C)NC(=O)CNC(=O)[C@H](CC(C)C)NC(C)=O)C(=O)N[C@@H](CO)C(=O)N[C@@H](Cc1ccccc1)C(=O)N[C@@]1(C)CCCC=CCCC[C@@](C)(C(=O)N[C@@H](CCC(N)=O)C(=O)N[C@@H](CCC(=O)O)C(=O)N[C@@H](CCC(=O)O)C(=O)N[C@@H](CCCCN)C(=O)N[C@@H](CO)C(=O)N[C@@H](CO)C(=O)N[C@@H](CC(N)=O)C(N)=O)NC(=O)CNC(=O)[C@H](CCC(N)=O)NC(=O)[C@H](CC(=O)O)NC1=O) [SP39] | 3.08 µM
Ac-LGANDELISF[R8]DEGEQE[S5]KSSN-NH2 (staple 11-18; SMILES CC[C@H](C)[C@H](NC(=O)[C@H](CC(C)C)NC(=O)[C@H](CCC(=O)O)NC(=O)[C@H](CC(=O)O)NC(=O)[C@H](CC(N)=O)NC(=O)[C@H](C)NC(=O)CNC(=O)[C@H](CC(C)C)NC(C)=O)C(=O)N[C@@H](CO)C(=O)N[C@@H](Cc1ccccc1)C(=O)N[C@]1(C)CCCCCCC=CCCC[C@@](C)(C(=O)N[C@@H](CCCCN)C(=O)N[C@@H](CO)C(=O)N[C@@H](CO)C(=O)N[C@@H](CC(N)=O)C(N)=O)NC(=O)[C@H](CCC(=O)O)NC(=O)[C@H](CCC(N)=O)NC(=O)[C@H](CCC(=O)O)NC(=O)CNC(=O)[C@H](CCC(=O)O)NC(=O)[C@H](CC(=O)O)NC1=O) [SP20] | ≥ 100 µM
Ac-LGANDELISFKDEGEQEEKSS-NH2 (Linear, not crosslinked) [SP15] | 6.08 µM
Ac-LGANDELISW[S5]DEG[S5]QQEKSSENSSA[S5]RDL[S5]NVKSSLV-NH2 (staple 11-15, 27-31; SMILES CC[C@H](C)[C@H](NC(=O)[C@H](CC(C)C)NC(=O)[C@H](CCC(=O)O)NC(=O)[C@H](CC(=O)O)NC(=O)[C@H](CC(N)=O)NC(=O)[C@H](C)NC(=O)CNC(=O)[C@H](CC(C)C)NC(C)=O)C(=O)N[C@@H](CO)C(=O)N[C@@H](Cc1c[nH]c2ccccc12)C(=O)N[C@@]1(C)CCCC=CCCC[C@@](C)(C(=O)N[C@@H](CCC(N)=O)C(=O)N[C@@H](CCC(N)=O)C(=O)N[C@@H](CCC(=O)O)C(=O)N[C@@H](CCCCN)C(=O)N[C@@H](CO)C(=O)N[C@@H](CO)C(=O)N[C@@H](CCC(=O)O)C(=O)N[C@@H](CC(N)=O)C(=O)N[C@@H](CO)C(=O)N[C@@H](CO)C(=O)N[C@@H](C)C(=O)N[C@@]2(C)CCCC=CCCC[C@@](C)(C(=O)N[C@@H](CC(N)=O)C(=O)N[C@H](C(=O)N[C@@H](CCCCN)C(=O)N[C@@H](CO)C(=O)N[C@@H](CO)C(=O)N[C@@H](CC(C)C)C(=O)N[C@H](C(N)=O)C(C)C)C(C)C)NC(=O)[C@H](CC(C)C)NC(=O)[C@H](CC(=O)O)NC(=O)[C@H](CCCNC(=N)N)NC2=O)NC(=O)CNC(=O)[C@H](CCC(=O)O)NC(=O)[C@H](CC(=O)O)NC1=O) [SP61] | 1 µM
LGANDELISFANEGAQEEKSSNNSSAARNLADVKSSLV (not fully specified; N-terminal acetyl; C-terminal amide; $ = (S)-alpha-(2'-pentenyl)alanine at positions 11 and 15 (first crosslink) and 27 and 31 (second crosslink), each pair joined by an all-carbon crosslinker with one double bond) [SP64] | 0.541 µM
Ac-LGANDELISF[S5]NEG[S5]QAEKSSNNSSA[S5]RNL[S5]DVKSSLV-NH2 (staple 11-15, 27-31; SMILES CC[C@H](C)[C@H](NC(=O)[C@H](CC(C)C)NC(=O)[C@H](CCC(=O)O)NC(=O)[C@H](CC(=O)O)NC(=O)[C@H](CC(N)=O)NC(=O)[C@H](C)NC(=O)CNC(=O)[C@H](CC(C)C)NC(C)=O)C(=O)N[C@@H](CO)C(=O)N[C@@H](Cc1ccccc1)C(=O)N[C@@]1(C)CCCC=CCCC[C@@](C)(C(=O)N[C@@H](CCC(N)=O)C(=O)N[C@@H](C)C(=O)N[C@@H](CCC(=O)O)C(=O)N[C@@H](CCCCN)C(=O)N[C@@H](CO)C(=O)N[C@@H](CO)C(=O)N[C@@H](CC(N)=O)C(=O)N[C@@H](CC(N)=O)C(=O)N[C@@H](CO)C(=O)N[C@@H](CO)C(=O)N[C@@H](C)C(=O)N[C@@]2(C)CCCC=CCCC[C@@](C)(C(=O)N[C@@H](CC(=O)O)C(=O)N[C@H](C(=O)N[C@@H](CCCCN)C(=O)N[C@@H](CO)C(=O)N[C@@H](CO)C(=O)N[C@@H](CC(C)C)C(=O)N[C@H](C(N)=O)C(C)C)C(C)C)NC(=O)[C@H](CC(C)C)NC(=O)[C@H](CC(N)=O)NC(=O)[C@H](CCCNC(=N)N)NC2=O)NC(=O)CNC(=O)[C@H](CCC(=O)O)NC(=O)[C@H](CC(N)=O)NC1=O) [SP63] | 1.19 µM
LGANDELISFANEGAQEEKSSNNSSAARDLADVKSSLV (not fully specified; N-terminal acetyl; C-terminal amide; $ = (S)-alpha-(2'-pentenyl)alanine at positions 11 and 15 (first crosslink) and 27 and 31 (second crosslink), each pair joined by an all-carbon crosslinker with one double bond) [SP62] | 0.07 µM
